Measured values taken from IntAct's records for PubMed 15890343.

Target: otx2_mouse Otx2 (UniProt P80206)
Sequence (P80206 whole entry): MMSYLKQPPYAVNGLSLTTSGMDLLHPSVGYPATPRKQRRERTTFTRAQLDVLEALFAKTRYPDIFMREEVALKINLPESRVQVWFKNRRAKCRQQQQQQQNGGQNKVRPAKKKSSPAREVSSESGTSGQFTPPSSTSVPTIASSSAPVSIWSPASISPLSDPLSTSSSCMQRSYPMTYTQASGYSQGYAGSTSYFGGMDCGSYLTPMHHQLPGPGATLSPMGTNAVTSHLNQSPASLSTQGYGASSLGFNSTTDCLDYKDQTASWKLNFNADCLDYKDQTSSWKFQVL

Sequence of Diencephalon/mesencephalon homeobox protein 1 (Mus musculus), Q91ZK4 R122W (Q91ZK4 whole entry R122W): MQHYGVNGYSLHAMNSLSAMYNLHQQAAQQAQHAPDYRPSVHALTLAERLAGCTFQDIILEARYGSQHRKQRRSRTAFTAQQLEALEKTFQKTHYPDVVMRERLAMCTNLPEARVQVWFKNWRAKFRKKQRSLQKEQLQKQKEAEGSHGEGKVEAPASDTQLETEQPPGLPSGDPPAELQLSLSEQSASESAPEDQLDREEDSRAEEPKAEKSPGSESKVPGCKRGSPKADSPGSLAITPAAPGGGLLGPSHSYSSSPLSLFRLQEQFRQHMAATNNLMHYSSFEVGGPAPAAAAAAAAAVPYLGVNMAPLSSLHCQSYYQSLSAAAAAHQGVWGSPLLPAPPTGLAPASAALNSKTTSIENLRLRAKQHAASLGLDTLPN

- effect of a mutation on the interaction: disrupting interaction
Substance: Diencephalon/mesencephalon homeobox protein 1 (Mus musculus), Q91ZK4 R122W
